Results published in paper PMC11982978, “Cancer hotspot mutations rewire ERK2 specificity by selective exclusion of docking interactions” (The Journal of Biological Chemistry, 2025).
Positions count from the first letter of the chain named. Where two headings read alike, the source gives them in different places. One block for each binder: values may come before it. Ends that are not written are not given here.

How the values were obtained:
[1] = target: T1, Active phosphorylated His6-tagged ERK2 R133K (rat (p-0033 says mouse)), P63086; settings: modification not given; phosphorylated (active form; sites not given)
T1 chain: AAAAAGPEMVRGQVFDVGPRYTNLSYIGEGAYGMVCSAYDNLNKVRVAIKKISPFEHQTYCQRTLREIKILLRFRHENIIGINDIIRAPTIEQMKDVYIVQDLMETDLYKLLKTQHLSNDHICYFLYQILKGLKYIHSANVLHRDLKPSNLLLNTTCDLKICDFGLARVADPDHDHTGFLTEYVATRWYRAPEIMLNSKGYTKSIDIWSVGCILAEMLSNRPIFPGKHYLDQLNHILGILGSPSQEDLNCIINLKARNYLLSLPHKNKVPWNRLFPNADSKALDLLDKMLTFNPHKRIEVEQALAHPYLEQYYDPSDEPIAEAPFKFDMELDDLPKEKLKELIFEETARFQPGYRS

[2] = target: T2, Active phosphorylated His6-tagged ERK2 D319N (rat (p-0033 says mouse)), P63086; settings: modification not given; phosphorylated (active form; sites not given)
T2 chain: T1 chain with K131R, D317N

[3] = target: T3, Active phosphorylated His6-tagged ERK2 E320K (rat (p-0033 says mouse)), P63086; settings: modification not given; phosphorylated (active form; sites not given)
T3 chain: T1 chain with K131R, E318K

[4] = target: T4, Active phosphorylated His6-tagged ERK2 WT (rat (p-0033 says mouse)), P63086; settings: modification not given; phosphorylated (active form; sites not given)
[5] = target: T1, Active phosphorylated His6-tagged ERK2 …; settings: modification not given; phosphorylated (active form; sites not given)
[6] = target: T4, Active phosphorylated His6-tagged ERK2 …; settings: modification not given; phosphorylated (active form; sites not given); remark: listed apart in the source
[7] = target: T2, Active phosphorylated His6-tagged ERK2 …; settings: modification not given; phosphorylated (active form; sites not given)
[8] = target: T3, Active phosphorylated His6-tagged ERK2 …; settings: modification not given; phosphorylated (active form; sites not given)
[9] = target: T2, Active phosphorylated His6-tagged ERK2 …; experiment: competitive peptide kinase assay; D-peptide titrated as competitive inhibitor of 10 nM ERK2 on 5 μM D-site dependent reporter peptide (AQT0376), 10 μM ATP; 54 mM HEPES pH 7.4, 1.2 mM DTT, 0.01% Brij-35, 1% glycerol, 0.2 mg/ml BSA, 10 mM MgCl2; fluorescence read-out; IC50 as relative binding affinity
[10] = target: T3, Active phosphorylated His6-tagged ERK2 …; experiment: as above
[11] = target: T1, Active phosphorylated His6-tagged ERK2 …; experiment: as above
[12] = target: T4, Active phosphorylated His6-tagged ERK2 …; experiment: as above
[13] = target: T3, Active phosphorylated His6-tagged ERK2 …; settings: modification not given; phosphorylated (active form; sites not given)
[14] = target: T4, Active phosphorylated His6-tagged ERK2 …; settings: modification not given; phosphorylated (active form; sites not given); remark: listed apart in the source
[15] = target: T1, Active phosphorylated His6-tagged ERK2 …; settings: modification not given; phosphorylated (active form; sites not given)
[16] = target: T2, Active phosphorylated His6-tagged ERK2 …; settings: modification not given; phosphorylated (active form; sites not given)

Binder: GLQERRGSNVSLTL (not fully specified (some residues, N-terminus)) [PTPN5]
IC50 [1]: 760 µM
IC50 [2]: 600 µM
IC50 [3]: 600 µM
IC50 [4]: 42 µM

Binder: PQKGRKPRDLELPL (not fully specified (some residues, N-terminus)) [ELK1]
IC50 [5]: 58 µM
IC50 [6]: 35 µM
IC50 [7]: 32 µM
IC50 [8]: 43 µM

Binder: IGRARRGLPRLAVSD (modifications not checked) [ISG20 D-peptide G2+]
IC50 [9]: 150 µM
IC50 [10]: 170 µM
IC50 [11]: 150 µM
IC50 [12]: 120 µM

Further lines, results first:

IC50 [13]: 41 µM
IC50 [14]: 23 µM
IC50 [15]: 29 µM
IC50 [16]: 23 µM
Binder: ARRKPVLPALTINP (not fully specified (some residues, N-terminus)) [MAP2K2]

IC50 [9]: 150 µM
IC50 [10]: 210 µM
IC50 [11]: 170 µM
IC50 [12]: 75 µM
Binder: IRARRGGLPRLAVSD (modifications not checked) [ISG20 D-peptide G7+]
